Substitutions are numbered along the chain they refer to. Read-outs that look alike come from different tables or passages of the source.

The values below come from patent US20190112393 (published 2019).

For assay [1], the target named is T1, human FcγRIIb (human, UniProt P31994).
T1 chain: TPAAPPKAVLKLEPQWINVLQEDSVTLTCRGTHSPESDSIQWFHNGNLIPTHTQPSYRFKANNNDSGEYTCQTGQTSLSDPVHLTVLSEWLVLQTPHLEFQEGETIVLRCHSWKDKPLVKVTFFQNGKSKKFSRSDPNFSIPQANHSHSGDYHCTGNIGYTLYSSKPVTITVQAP
As to the kind of experiment: SPR.

Assay [2] addresses T2, human FcγRIa (human, UniProt P12314).
T2 chain: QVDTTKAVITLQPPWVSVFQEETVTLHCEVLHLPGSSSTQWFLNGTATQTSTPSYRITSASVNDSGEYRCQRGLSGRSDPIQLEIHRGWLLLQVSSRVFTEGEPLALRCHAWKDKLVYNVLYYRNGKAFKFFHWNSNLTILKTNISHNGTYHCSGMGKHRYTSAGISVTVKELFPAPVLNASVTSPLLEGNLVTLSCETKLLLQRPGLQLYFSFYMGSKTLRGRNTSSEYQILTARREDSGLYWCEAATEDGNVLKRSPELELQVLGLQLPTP
Briefly: SPR.

Assay [3] has as its target T1, human FcγRIIb. Briefly: SPR.
Assay [4] addresses T1, human FcγRIIb. As to the kind of experiment: SPR.
The target of assay [5] is T1, human FcγRIIb. Briefly: SPR.
Assay [6] addresses T2, human FcγRIa. As to the kind of experiment: SPR.
Assay [7] deals with T2, human FcγRIa. As to the kind of experiment: SPR.
Assay [8] deals with T1, human FcγRIIb. Briefly: SPR.
For another assay, the target named is human FcRn (human). Briefly: SPR, pH 6.0.
The target of a further assay is T3, mouse FcγRIV (mouse, UniProt A0A0B4J1G0).
T3 chain: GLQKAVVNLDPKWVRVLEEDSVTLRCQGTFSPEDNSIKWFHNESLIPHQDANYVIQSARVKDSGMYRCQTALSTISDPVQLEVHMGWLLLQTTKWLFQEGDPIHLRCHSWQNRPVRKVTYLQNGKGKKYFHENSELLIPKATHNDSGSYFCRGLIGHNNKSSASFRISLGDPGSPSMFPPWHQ
As to the kind of experiment: SPR.

In another assay the target is T4, mouse FcγRI (mouse, UniProt P26151).
T4 chain: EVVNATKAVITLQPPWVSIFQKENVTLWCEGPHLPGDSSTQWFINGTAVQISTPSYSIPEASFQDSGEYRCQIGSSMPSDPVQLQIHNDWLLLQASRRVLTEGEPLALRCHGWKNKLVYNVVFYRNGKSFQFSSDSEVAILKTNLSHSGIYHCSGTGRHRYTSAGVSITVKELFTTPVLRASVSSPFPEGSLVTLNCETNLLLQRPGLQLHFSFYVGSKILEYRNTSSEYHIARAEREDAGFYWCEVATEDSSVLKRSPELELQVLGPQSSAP
Briefly: SPR.

human FcRn (human), sequence (chain, as listed by the source, chain 1 of 2): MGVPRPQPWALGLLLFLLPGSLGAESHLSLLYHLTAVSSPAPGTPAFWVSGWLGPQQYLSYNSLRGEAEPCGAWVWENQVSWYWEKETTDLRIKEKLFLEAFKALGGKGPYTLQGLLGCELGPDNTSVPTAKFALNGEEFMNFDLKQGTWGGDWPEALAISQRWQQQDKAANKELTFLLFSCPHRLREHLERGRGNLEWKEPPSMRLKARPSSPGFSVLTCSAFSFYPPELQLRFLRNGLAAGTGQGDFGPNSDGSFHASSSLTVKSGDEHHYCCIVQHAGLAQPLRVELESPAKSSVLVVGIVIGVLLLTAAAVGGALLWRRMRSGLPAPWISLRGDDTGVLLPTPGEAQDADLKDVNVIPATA
human FcRn (human), sequence (chain, as listed by the source, chain 2 of 2): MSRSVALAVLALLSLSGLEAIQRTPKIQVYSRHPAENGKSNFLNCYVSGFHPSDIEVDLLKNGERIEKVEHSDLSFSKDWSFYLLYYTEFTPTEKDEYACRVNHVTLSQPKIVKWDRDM

B1: BP464 (antibody)
chain 1: QVQLQESGPGLVKPSETLSLTCAVSGHSISHDHAWSWVRQPPGEGLEWIGFISYSGITNYNPSLQGRVTISRDNSKNTLYLQMNSLRAEDTAVYYCARSLARTTAMDYWGEGTLVTVSSASTKGPSVFPLAPSSKSTSGGTAALGCLVKDYFPEPVTVSWNSGALTSGVHTFPAVLQSSGLYSLSSVVTVPSSSLGTQTYICNVNHKPSNTKVDKKVEPKSCDKTHTCPPCPAPDLLGDDSVFLFPPKPKDTLMISRTPEVTCVVVDVAEEDGEVKFNWYVDGVEVHNAKTKPREEQYNSTYRVVSVLTVLHQDWLNGKEYKCKVSNKALPRPIEKTISKAKGQPREPQVYTLPPSRDELTKNQVSLTCLVKGFYPSDIAVEWESNGQPENNYKTTPYVLDSDGSFFLYSKLTVDKSRWQQGNVFSCSVMHEALHNHYTQESLSLSP
chain 2: not shown
Molecule B1 showed a Kd in the assay with human FcγRIIb [1] of 0.004 µM.

B2: BP233 (antibody)
chain 1: B1 chain 1 with D235E, L236Y, A269S, E270H, R332K, Y398P
chain 2: not shown
Molecule B2 came in with a Kd with human FcγRIa [2] of 0.07 µM.

B3: BP350 (antibody)
chain 1: B1 chain 1 with A269E, R332A, Y398P
chain 2: not shown
With B3, in the assay with human FcγRIIb [3], the Kd is 0.1 µM.

B4: BP239 (antibody)
chain 1: B1 chain 1 with L236Y, A269Q, E270D, Y298D, K328A, Y398P
chain 2: not shown
The molecule B4 showed a Kd with human FcγRIIb [4] of 0.06 µM.

B5: BP262 (antibody)
chain 1: B1 chain 1 with D235E, A269S, R332A, Y398P
chain 2: not shown
As for B5, the Kd in the assay with human FcγRIIb [5] is 0.12 µM; with human FcγRIa [6] it was 0.01 µM.

B6: BP228 (antibody)
chain 1: B1 chain 1 with D235E, L236Y, A269Q, E270D, K328D, Y398P
chain 2: not shown
In turn, B6 gave a Kd with human FcγRIIb [4] of 0.04 µM.

B7: BP268 (antibody)
chain 1: B1 chain 1 with A269S, Y298D, R332A, Y398P
chain 2: not shown
Regarding B7, the dissociation constant Kd with human FcγRIIb [5] stood at 0.092 µM; with human FcγRIa [6], 0.0045 µM.

B8: BP182 (antibody)
chain 1: B1 chain 1 with D239G, A269S, E270H, Y298D, R332K, Y398P
chain 2: not shown
With B8, in the assay with human FcγRIa [7], the Kd is 0.01 µM.

B9: 2B261 (antibody)
chain 1: B1 chain 1 with D239G, A269S, E270H, G273P, Y298D, R332A, Y398P
chain 2: not shown
B9: the Kd with human FcγRIIb [8] worked out at 1 µM; with human FcγRIa [7], 0.009 µM.

B10: BP246 (antibody)
chain 1: B1 chain 1 with A269Q, E270D, Y298D, K328A, Y398P
chain 2: not shown
The molecule B10 showed a Kd with human FcγRIa [2] of 0.008 µM. That is a single-digit nanomolar value.

B11: BP151 (antibody)
chain 1: B1 chain 1 with L236Y, A269S, E270H, G273P, K328A, Y398P
chain 2: not shown
B11: in the assay with human FcγRIIb [8], binding was put at a Kd of 0.04 µM.

B12: BP435 (antibody)
chain 1: B1 chain 1 with A269S, E270D, Y298D, K328A, I334T, Y398P
chain 2: not shown
On to B12, for which the Kd with human FcγRIa [6] is 0.001 µM.

B13: BP243 (antibody)
chain 1: B1 chain 1 with L236Y, A269S, E270D, Y398P
chain 2: not shown
Molecule B13 registered a Kd in the assay with human FcγRIa [2] of 0.003 µM.

B14: BP249 (antibody)
chain 1: B1 chain 1 with L236Y, A269S, E270D, Y298D, Y398P
chain 2: not shown
As to B14, in the assay with human FcγRIa [2], the affinity, expressed as Kd, was 0.007 µM.

B15: BP237 (antibody)
chain 1: B1 chain 1 with L236Y, A269Q, E270D, Y298D, K328A, R332K, Y398P
chain 2: not shown
B15 returned a Kd with human FcγRIIb [4] of 0.1 µM.

B16: BP264 (antibody)
chain 1: B1 chain 1 with A269S, Y298D, Y398P
chain 2: not shown
As to B16, in the assay with human FcγRIa [6], the Kd was 0.0074 µM.

B17: BP455 (antibody)
chain 1: B1 chain 1 with Y398L
chain 2: not shown
The molecule B17 displayed a Kd with human FcγRIIb [1] of 0.004 µM.

B18: BP269 (antibody)
chain 1: B1 chain 1 with D235E, A269S, Y298D, R332A, Y398P
chain 2: not shown
For the molecule B18, the results for the Kd with human FcγRIIb [5] and with human FcγRIa [6] were 0.11 µM and 0.014 µM, respectively.

B19: BP084 (antibody)
chain 1: B1 chain 1 with D235E, D239G, A269S, E270H, G273P, V325M, R332K, Y398P
chain 2: not shown
With B19, the Kd came to 0.5 µM with human FcγRIIb [8] and 0.007 µM with human FcγRIa [7].

B20: BP130 (antibody)
chain 1: B1 chain 1 with D239G, A269S, E270H, G273P, V325M, R332K, Y398P
chain 2: not shown
As for B20, binding with human FcγRIIb [8] was characterised by a dissociation constant (Kd) of 0.3 µM. This lies in the sub-micromolar range.

B21: BP367 (antibody)
chain 1: B1 chain 1 with A269S, E271D, R332A, Y398P
chain 2: not shown
Molecule B21 registered a Kd in the assay with human FcγRIIb [3] of 0.1 µM.

B22: BP220 (antibody)
chain 1: B1 chain 1 with A269S, E270D, Y298D, R332K, Y398P
chain 2: not shown
As for B22, in the assay with human FcγRIa [2], the Kd was 0.02 µM.

B23: BP426 (antibody)
chain 1: B1 chain 1 with E271D, Y398P
chain 2: not shown
On to B23, for which the affinity with human FcγRIa [6], expressed as Kd, was 0.001 µM.

B24: F1172 (antibody)
chain 1: QVQLQESGPGLVKPSETLSLTCAVSGHSISHDHAWSWVRQPPGEGLEWIGFISYSGITNYNPSLQGRVTISRDNSKNTLYLQMNSLRAEDTAVYYCARSLARTTAMDYWGEGTLVTVSSASTKGPSVFPLAPSSKSTSGGTAALGCLVKDYFPEPVTVSWNSGALTSGVHTFPAVLQSSGLYSLSSVVTVPSSSLGTQTYICNVNHKPSNTKVDKKVEPKSCDKTHTCPPCPAPELLGGPSVFLFPPKPKDTLMISRTPEVTCVVVDVSHEDPEVKFNWYVDGVEVHNAKTKPREEQYNSTYRVVSVLTVLHQDWLNGKEYKCKVSNKALPAPIEKTISKAKGQPREPQVYTLPPSRDELTKNQVSLTCLVKGFYPSDIAVEWESNGQPENNYKTTPPVLDSDGSFFLYSKLTVDKSRWQQGNVFSCSVMHEALHHHYTRKELSLSP
chain 2: DIQMTQSPSSLSASVGDSVTITCQASTDISSHLNWYQQKPGKAPELLIYYGSHLLSGVPSRFSGSGSGTDFTFTISSLEAEDAATYYCGQGNRLPYTFGQGTKVEIERTVAAPSVFIFPPSDEQLKSGTASVVCLLNNFYPREAKVQWKVDNALQSGNSQESVTEQDSKDSTYSLSSTLTLSKADYEKHKVYACEVTHQGLSSPVTKSFNRGEC
On to B24, for which binding with human FcRn was put at a Kd of 0.4 µM. In other words, the sub-micromolar range.

B25: VH3/L(WT)-mIgG1-mF44 (antibody)
chain 1: QVQLQESGPGLVKPSETLSLTCAVSGHSISHDHAWSWVRQPPGEGLEWIGFISYSGITNYNPSLQGRVTISRDNSKNTLYLQMNSLRAEDTAVYYCARSLARTTAMDYWGEGTLVTVSSAKTTPPSVYPLAPGSAAQTNSMVTLGCLVKGYFPEPVTVTWNSGSLSSGVHTFPAVLQSDLYTLSSSVTVPSSTWPSETVTCNVAHPASSTKVDKKIVPRDCGCKPCICTVPEVSSVFIFPPKPKDVLTITLTPKVTCVVVDISKDDPEVQFSWFVDDVEVHTAQTQPREEQFNSTFRSVSELPIMHQDWLNGKEFKCRVNSADFPAPIEKTISKTKGRPKAPQVYTIPPPKEQMAKDKVSLTCMITDFFPEDITVEWQWNGQPAENYKNTQPIMDTDGSYFVYSKLNVQKSNWEAGNTFTCSVLHEGLHNHHTEKSLSHSPGK
chain 2: not shown
With B25, the binding result with mouse FcγRIV and in the assay with mouse FcγRI was “no binding” each time.

B26: VH3/L(WT)-mIgG1-mF46 (antibody)
chain 1: B25 chain 1 with S235D
chain 2: not shown
For the molecule B26, the binding result with mouse FcγRIV and with mouse FcγRI was “no binding” in each case.

B27: VH3/L(WT)-mIgG1 (antibody)
chain 1: B25 chain 1 with D323A
chain 2: not shown
As to B27, the binding result with mouse FcγRIV and with mouse FcγRI was “no binding” in each case.
